Patent US20220089705A1

Tests used:
[1] = target: aP2 (species not stated in the passage) (Homo sapiens (Human)) (UniProt P15090); assay: SPR and Octet ranking of H3 variants; value of the parent H3; species of aP2 not stated
[2] = target: aP2 (species not stated in the passage) (Homo sapiens (Human)) (UniProt P15090); assay: column head 'Affinity'; assay and aP2 species not printed on the sheet (the two other values of the column, 6.03 and 5.82 µM, equal the human aP2 averages of FIG. 31)

B1: H3, mouse anti-aP2 monoclonal antibody (H3 gL1/gH1) (antibody, V domains shown)
VH: QVQLQQPGAELVKPGASVKLSCKASGYTFTSNWITWVKQRPGQGLEWIGDIYPGSGSTTNNEKFKSKATLTVDTSSSTAYMQLSSLTSEDSAVYYCARLRGYYDYFDFWGQGTTLTVSS
VL: EVVLTQSPALMAASPGEKVTITCSVSSSISSSNLHWYQQKSETSPKPWIYGTSNLASGVPVRFSGSGSGTSYSLTISSMEAEDAATYYCQQWSHYPLTFGAGTKLELK
Work on B1 yielded a Kd [1] of less than 0.07 µM.

B2: CA33, rabbit-mouse hybrid anti-aP2 monoclonal antibody (Rabbit Ab 909) (antibody, V domains shown)
VH: QSVEESGGRLVTPGTPLTLTCTVSGFSLSTYYMSWVRQAPGKGLEWIGIIYPSGSTYCASWAKGRFTISKASTTVDLKITSPTTEDTATYFCARPDNDGTSGYLSGFGLWGQGTLVTVSS
VL: DVVMTQTPASVSEPVGGTVTIKCQASEDISRYLVWYQQKPGQPPKRLIYKASTLASGVPSRFKGSGSGTDFTLTISDLECDDAATYYCQCTYGTYAGSFFYSFGGGTEVVVE
Binder B2 has a Kd [2] of 6.5 µM.
